In article PMC3696004:
One block for each molecule: values may come before it.

Key:
[1] = biological target: HAFib3 (Fib3 prey fragment with an N-terminal hemagglutinin tag) (human) (UniProt Q12805); experiment: ELISA; HAFib3 (250 ng/ml) captured on plate-bound anti-HA antibody; a range of concentrations of CFH678 (H or Y) in PBS, overnight at 4°C; detected with goat anti-CFH and HRP secondary antibody at 450 nm; background without HAFib3 subtracted, 8 replicates; one-site specific binding fit (GraphPad Prism)
[2] = biological target: CFH SCR7 bait, 402H variant (human); experiment: two-hybrid; quantitative βGal assay in selective liquid culture with CPRG substrate, Miller Units; five independent yeast clones for each bait
CFH SCR7 bait, 402H variant (human), sequence (P08603 19-1231, change not shown): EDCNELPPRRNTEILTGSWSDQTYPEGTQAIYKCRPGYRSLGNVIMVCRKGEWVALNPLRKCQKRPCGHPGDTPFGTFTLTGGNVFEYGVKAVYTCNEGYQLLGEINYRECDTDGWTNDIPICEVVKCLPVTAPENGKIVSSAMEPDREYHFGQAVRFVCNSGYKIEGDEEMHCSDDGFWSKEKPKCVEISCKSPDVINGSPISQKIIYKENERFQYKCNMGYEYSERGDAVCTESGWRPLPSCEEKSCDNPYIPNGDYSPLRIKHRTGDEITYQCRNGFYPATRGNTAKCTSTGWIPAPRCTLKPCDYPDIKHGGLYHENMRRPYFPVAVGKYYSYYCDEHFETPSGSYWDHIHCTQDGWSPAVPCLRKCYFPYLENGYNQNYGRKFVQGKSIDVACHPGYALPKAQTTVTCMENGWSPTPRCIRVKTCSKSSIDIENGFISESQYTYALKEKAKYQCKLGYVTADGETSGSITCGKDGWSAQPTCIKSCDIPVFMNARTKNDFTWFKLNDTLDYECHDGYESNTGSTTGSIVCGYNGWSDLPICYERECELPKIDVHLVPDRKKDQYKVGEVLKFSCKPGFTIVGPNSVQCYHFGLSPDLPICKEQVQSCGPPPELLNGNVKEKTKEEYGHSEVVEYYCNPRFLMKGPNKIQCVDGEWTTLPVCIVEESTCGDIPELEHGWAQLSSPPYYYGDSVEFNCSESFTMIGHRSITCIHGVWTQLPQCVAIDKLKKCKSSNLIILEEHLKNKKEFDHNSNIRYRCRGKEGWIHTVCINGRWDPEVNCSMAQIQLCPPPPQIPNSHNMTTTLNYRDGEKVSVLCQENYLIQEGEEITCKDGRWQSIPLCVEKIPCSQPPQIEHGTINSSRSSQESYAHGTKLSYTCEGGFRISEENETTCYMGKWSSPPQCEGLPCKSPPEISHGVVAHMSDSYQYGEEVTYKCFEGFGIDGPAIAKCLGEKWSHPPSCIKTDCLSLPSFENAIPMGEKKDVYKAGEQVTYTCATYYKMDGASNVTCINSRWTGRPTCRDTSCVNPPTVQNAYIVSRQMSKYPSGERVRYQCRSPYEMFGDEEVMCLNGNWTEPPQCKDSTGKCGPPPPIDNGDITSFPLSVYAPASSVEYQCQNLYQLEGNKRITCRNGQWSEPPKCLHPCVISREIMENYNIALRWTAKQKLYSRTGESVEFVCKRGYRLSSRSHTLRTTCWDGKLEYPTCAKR

- Kd [1]: 134 nM
Molecule: Recombinant CFH domains 6-8, 402H variant (CFH678-H) (domain or fragment)

- Kd [1]: 197 nM
Molecule: Recombinant CFH domains 6-8, 402Y variant (CFH678-Y) (domain or fragment)

- higher βGal activation than with CFH-Y [2]: 60%
B1: Fib3 prey fusion protein from the Y2H screen (EFEMP1/Fibulin 3 residues 289-493) (domain or fragment)
chain: RLNCEDIDECRTSSYLCQYQCVNEPGKFSCMCPQGYQVVRSRTCQDINECETTNECREDEMCWNYHGGFRCYPRNPCQDPYILTPENRCVCPVSNAMCRELPQSIVYKYMSIRSDRSVPSDIFQIQATTIYANTINTFRIKSGNENGEFYLRQTSPVSAMLVLVKSLSGPREHIVDLEMLTVSSIGTFRTSSVLRLTIIVGPFSF
